± gives the uncertainty stated by the source.
B1: Unconventional myosin-Ie, residues 1051 to 1108; numbered along this chain, Q12965 (parent)
chain: PQVPQCKALYAYDAQDTDELSFNANDIIDIIKEDPSGWWTGRLRGKQGLFPNNYVTKI

Variants of: B1
Assay: abundance fitness (aPCA) (normalised: wild type 0, dead -1); higher = more abundant; growth selection in yeast, the domain comes from the species named
Settings: Homo sapiens

Abundance fitness, by site and new letter:
C6: V -0.001 ± 0.043; W -0.571 ± 0.072; T -0.768 ± 0.14
A24: K -0.04 ± 0.045; R -0.068 ± 0.044; D -0.477 ± 0.15; I -0.04 ± 0.061; M -0.034 ± 0.074; S -0.108 ± 0.053; Y -0.528 ± 0.18; H -0.06 ± 0.12; V -0.05 ± 0.034; W -0.481 ± 0.077; Q -0.164 ± 0.07; T -0.012 ± 0.041; N -0.648 ± 0.29; F -0.106 ± 0.1; E -0.052 ± 0.054; C -0.213 ± 0.1
A11: M -0.149 ± 0.037; D 0.102 ± 0.096; F -0.388 ± 0.12; L -0.308 ± 0.056; H -0.013 ± 0.078; N 0.022 ± 0.17; T -0.218 ± 0.076; Q 0.045 ± 0.062; R 0.025 ± 0.03; P 0.019 ± 0.062; G -0.186 ± 0.055; C -0.193 ± 0.1; S -0.023 ± 0.058; E -0.059 ± 0.059
N25: P -0.878 ± 0.12; R -0.142 ± 0.033; F -0.302 ± 0.063; V -0.753 ± 0.073; D -0.048 ± 0.068; M -0.151 ± 0.051; S -0.088 ± 0.038; T -0.215 ± 0.065; W -0.224 ± 0.056; G -0.046 ± 0.041; Y -0.541 ± 0.11; Q -0.058 ± 0.054; I -0.833 ± 0.075; H -0.19 ± 0.082; A -0.129 ± 0.054; K -0.198 ± 0.064; E -0.117 ± 0.064
K7: M -0.092 ± 0.053; N -0.647 ± 0.2; Y -0.074 ± 0.045; S -0.167 ± 0.055; G -0.943 ± 0.091; L -0.106 ± 0.052; P -0.945 ± 0.064; I 0.004 ± 0.075; F -0.267 ± 0.054; D -1.02 ± 0.1; T -0.049 ± 0.069; Q -0.287 ± 0.092; V -0.057 ± 0.042; A -0.137 ± 0.053; E -0.264 ± 0.069; C -0.028 ± 0.072; W -0.26 ± 0.066; R -0.114 ± 0.04; H -0.122 ± 0.041
L9: E -0.149 ± 0.059; V -0.148 ± 0.039; M -0.213 ± 0.075; Q -0.268 ± 0.074; G -0.624 ± 0.049; W -0.588 ± 0.07; C -0.222 ± 0.068; F -0.743 ± 0.36; A -0.315 ± 0.052; T -0.491 ± 0.05; S -0.3 ± 0.059; H -0.367 ± 0.073; K -0.187 ± 0.041; Y -0.701 ± 0.25; R -0.291 ± 0.042; D -0.451 ± 0.078; P -0.822 ± 0.17; N -0.232 ± 0.063; I -0.375 ± 0.13
S21: D -0.217 ± 0.036; N -0.175 ± 0.093; Q -0.325 ± 0.087; M -0.803 ± 0.15; A -0.263 ± 0.057; Y -0.756 ± 0.28; C -0.219 ± 0.032; L -0.939 ± 0.11; V -0.891 ± 0.1; E -0.247 ± 0.039; W -0.559 ± 0.13; T -0.058 ± 0.042; K -0.266 ± 0.079; H -0.931 ± 0.45; F -0.938 ± 0.27; G -0.358 ± 0.059
A8: K -0.902 ± 0.32; T -0.544 ± 0.12; V -0.714 ± 0.11; P -0.732 ± 0.27; R -0.887 ± 0.15; N -0.853 ± 0.33; I -1 ± 0.086; F -0.619 ± 0.31; C -0.196 ± 0.13; S -0.714 ± 0.15; W -1.03 ± 0.31; G -0.748 ± 0.077; M -0.817 ± 0.32; E -0.674 ± 0.21
L20: E -0.807 ± 0.13; T -1.04 ± 0.22; H -0.977 ± 0.49; Q -1.12 ± 0.15; S -0.879 ± 0.14; V -0.879 ± 0.11; P -1.11 ± 0.11; N -0.764 ± 0.35; W -1.01 ± 0.066; G -1.03 ± 0.11; C -0.708 ± 0.19; D -0.893 ± 0.17; K -0.836 ± 0.13; I -0.05 ± 0.087; M -0.214 ± 0.046
T17: D -0.007 ± 0.078; A 0.026 ± 0.048; H -0.137 ± 0.19; L -0.239 ± 0.06; Q -0.078 ± 0.055; R -0.111 ± 0.049; M -0.043 ± 0.043; E -0.272 ± 0.09; G -0.057 ± 0.044; P -0.273 ± 0.092; K -0.18 ± 0.082; C -0.128 ± 0.063; Y -0.238 ± 0.088; W -0.091 ± 0.035; S -0.077 ± 0.05; F -0.287 ± 0.097; N -0.423 ± 0.14
D13: H -0.16 ± 0.057; R -0.165 ± 0.04; Q -0.018 ± 0.067; F -0.293 ± 0.057; N -0.084 ± 0.094; G -0.304 ± 0.056; P -0.399 ± 0.083; E -0.067 ± 0.044; I -0.082 ± 0.082; W -0.368 ± 0.056; Y -0.209 ± 0.039; T 0.012 ± 0.065; V -0.161 ± 0.056; S -0.189 ± 0.055; A -0.156 ± 0.051; C -0.134 ± 0.06; M -0.16 ± 0.05
D18: L -0.063 ± 0.049; Q -0.152 ± 0.044; W -0.2 ± 0.042; G -0.056 ± 0.038; R -0.065 ± 0.037; Y -0.078 ± 0.076; P 0.089 ± 0.085; H -0.279 ± 0.086; S 0.009 ± 0.046; C -0.05 ± 0.059; F -0.238 ± 0.12; I -0.197 ± 0.14; A -0.162 ± 0.056; M -0.091 ± 0.045; N -0.055 ± 0.077; V -0.257 ± 0.044; E 0.052 ± 0.054; T -0.1 ± 0.074
A14: F -0.782 ± 0.32; V -0.871 ± 0.1; G -0.173 ± 0.037; S -0.188 ± 0.061; N -0.452 ± 0.19; C -0.284 ± 0.059; T -0.374 ± 0.11; R -0.377 ± 0.035; D -0.797 ± 0.19; W -1.13 ± 0.31; H -0.741 ± 0.26; Q -0.345 ± 0.08; P -0.371 ± 0.042; E -0.695 ± 0.15; K -0.195 ± 0.053; L -0.98 ± 0.13; M -0.42 ± 0.12; I -0.901 ± 0.31
F22: Y -0.714 ± 0.41; G -0.954 ± 0.095; W -0.996 ± 0.14; N -0.816 ± 0.28; P -0.834 ± 0.26; I -0.409 ± 0.073; R -0.953 ± 0.11; M -0.441 ± 0.055; V -0.472 ± 0.079; S -0.766 ± 0.073; H -0.727 ± 0.27; D -0.748 ± 0.45; E -0.858 ± 0.21; C -0.895 ± 0.13; K -0.754 ± 0.18; T -0.793 ± 0.21
Q15: K -0.186 ± 0.11; P -0.484 ± 0.18; V -0.193 ± 0.038; C -0.239 ± 0.11; S -0.261 ± 0.083; A -0.087 ± 0.03; G -0.157 ± 0.031; R -0.035 ± 0.03; H -0.28 ± 0.13; E -0.23 ± 0.087; M -0.059 ± 0.064; I -0.172 ± 0.079; Y -0.312 ± 0.047; N 0.037 ± 0.11; T -0.054 ± 0.061; F -0.291 ± 0.21; D -0.145 ± 0.087; L -0.173 ± 0.04; W -0.408 ± 0.037
Y12: C -0.968 ± 0.086; R -0.107 ± 0.037; F -0.377 ± 0.13; K -0.54 ± 0.12; G -0.937 ± 0.072; T -0.836 ± 0.15; W -0.15 ± 0.039; H -0.274 ± 0.12; V -0.891 ± 0.047; I -0.966 ± 0.31; A -0.803 ± 0.096; S -0.909 ± 0.087; M -0.761 ± 0.15; L -0.892 ± 0.08; Q -0.887 ± 0.081; E -0.396 ± 0.12
D26: G -0.986 ± 0.094; E -0.015 ± 0.046; H -0.94 ± 0.42; M -0.86 ± 0.12; N -0.676 ± 0.2; C -0.957 ± 0.28; F -0.726 ± 0.27; P -0.981 ± 0.42; K -1.07 ± 0.3
D16: F -0.19 ± 0.057; H -0.206 ± 0.12; N -0.052 ± 0.052; T -0.024 ± 0.058; A -0.055 ± 0.058; W -0.231 ± 0.049; Y -0.093 ± 0.088; I -0.557 ± 0.16; G -0.156 ± 0.047; L -0.271 ± 0.046; V -0.169 ± 0.056; M -0.098 ± 0.054; Q -0.22 ± 0.07; P -0.798 ± 0.076; K -0.069 ± 0.07; C -0.057 ± 0.055; E -0.097 ± 0.053
N23: E 0.005 ± 0.041; F -0.076 ± 0.03; S 0.004 ± 0.027; Q -0.002 ± 0.04; H -0.048 ± 0.032; T -0.01 ± 0.03; C -0.062 ± 0.033; K -0.008 ± 0.045; W -0.38 ± 0.054; L -0.065 ± 0.028; D -0.047 ± 0.036; A -0.01 ± 0.031; P -0.788 ± 0.041; Y -0.155 ± 0.033; G -0.048 ± 0.027; M -0.026 ± 0.047; I -0.081 ± 0.03
E19: D -0.54 ± 0.09; C -0.123 ± 0.074; Q -0.125 ± 0.079; I -0.548 ± 0.22; A -0.288 ± 0.069; G -0.018 ± 0.04; T -0.132 ± 0.066; K -0.136 ± 0.073; W -0.359 ± 0.039; N -0.277 ± 0.093; P -0.925 ± 0.063; S -0.159 ± 0.054; L -0.435 ± 0.081; M -0.055 ± 0.076; V -0.382 ± 0.06; Y 0.191 ± 0.074; R -0.189 ± 0.038; F -0.095 ± 0.078
Y10: F -0.151 ± 0.069; K -0.043 ± 0.058; G -0.309 ± 0.033; L -0.16 ± 0.049; A -0.186 ± 0.045; T -0.218 ± 0.055; R 0.056 ± 0.036; S -0.166 ± 0.031; C -0.14 ± 0.058; M -0.158 ± 0.039; H -0.135 ± 0.072; E -0.217 ± 0.05; W -0.092 ± 0.065; I -0.364 ± 0.091; N -0.472 ± 0.1; V -0.121 ± 0.04; P -0.821 ± 0.2; D -0.247 ± 0.068; Q -0.054 ± 0.057
